Consider two molecules from publication doi:10.1101/2021.07.31.454597 (bioRxiv, 2021).

In data set [1] the target is Cre^Yang (R72E/L115D/R199D) (UniProt P06956). The experiment in a line: native MS.
The data set “cryo-EM structure” concerns the molecule itself. The experiment in a line: cryo-EM structure.

Regarding “Cre^Yin (D33A/A36V/R192A) (from UniProt P06956 1-343) (enzyme)”, the percent of the 2:1 protein:loxP complexes (ion counts) in data set [1] amounted to 36%.

B1: Cre^K201A (enzyme)
chain: MSNLLTVHQNLPALPVDATSDEVRKNLMDMFRDRQAFSEHTWKMLLSVCRSWAAWCKLNNRKWFPAEPEDVRDYLLYLQARGLAVKTIQQHLGQLNMLHRRSGLPRPSDSNAVSLVMRRIRKENVDAGERAKQALAFERTDFDQVRSLMENSDRCQDIRNLAFLGIAYNTLLRIAEIARIRVKDISRTDGGRMLIHIGRTATLVSTAGVEKALSLGVTKLVERWISVSGVADDPNNYLFCRVRKNGVAAPSATSQLSTRALEGIFEATHRLIYGAKDDSGQRYLAWSGHSARVGAARDMARAGVSIPEIMQAGGWTNVNIVMNYIRNLDSETGAMVRLLEDGD
Turning to B1, in the data set “cryo-EM structure”, the “stoichiometry N” value came to 4.
